Holding throughout (assay): SPR (Biacore), antibody captured, FcgR analyte
In general terms: SPR reads the build-up and loss of mass on a sensor chip optically.

Assay [1] deals with T1, cynomolgus monkey FcγRIIa3 extracellular domain, C-terminal His-tag (cynomolgus monkey).
T1 construct: also called cyno FcγRIIa3; cynoFcgRIIa3
T1 chain: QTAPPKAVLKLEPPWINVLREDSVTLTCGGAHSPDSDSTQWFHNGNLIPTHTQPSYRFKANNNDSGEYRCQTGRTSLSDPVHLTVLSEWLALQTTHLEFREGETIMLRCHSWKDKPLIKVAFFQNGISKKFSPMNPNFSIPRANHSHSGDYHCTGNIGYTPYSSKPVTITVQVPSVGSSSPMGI
As for the experimental part:
(§1) The kinetic analysis of interactions between these antibodies and FcγR was carried out using BIACORE® T200 or BIACORE® 4000 (GE Healthcare). HBS-EP+ (GE Healthcare) was used as the running buffer, and the measurement temperature was set to 25° C. A chip produced by immobilizing Protein A. Protein A/G or mouse anti-human IgG kappa light chain (BD Biosciences) onto a Series S Sensor Chip CM4 or CM5 (GE Healthcare) by the amine-coupling method was used. […] After the measurement, the antibody captured on the chip was washed off by allowing reaction with 10 mM glycine-HCl, pH1.5 and 25 mM NaOH so that the chip was regenerated and used repeatedly. The sensorgrams obtained as measurement results were analyzed by the 1:1 Langmuir binding model using the BIACORE® Evaluation Software to calculate the binding rate constant ka (L/mol/s) and dissociation rate constant kd (l/s), and the dissociation constant KD (mol/L) was calculated from these values. […] Regarding such interactions, KD values were calculated using the following 1:1 binding model described in BIACORE® T100 Software Handbook BR1006-48 Edition AE.
(§2) The behavior of interacting molecules according to the 1:1 binding model on BIACORE® can be described by Equation 1: Req=C·R max/(KD+C)+RI, wherein, Req is a plot of steady-state binding levels to analyte concentration. C is concentration, RI is bulk refractive index contribution in the sample, and Rmax is analyte binding capacity of the surface. When this equation is rearranged, KD can be expressed as Equation 2: KD=C·Rmax/(Req−RI)−C. KD can be calculated by substituting the values of Rmax, RI, and C into Equation 1 or Equation 2. From the current measurement conditions, RI=0, C=2 μmol/L can be used.

In assay [2] the target is T2, human FcγRIIaR extracellular domain, C-terminal His-tag (human, UniProt P12318 34-217).
T2 construct: also called human FcγRIIa (type R); FcgRIIaR
T2 chain: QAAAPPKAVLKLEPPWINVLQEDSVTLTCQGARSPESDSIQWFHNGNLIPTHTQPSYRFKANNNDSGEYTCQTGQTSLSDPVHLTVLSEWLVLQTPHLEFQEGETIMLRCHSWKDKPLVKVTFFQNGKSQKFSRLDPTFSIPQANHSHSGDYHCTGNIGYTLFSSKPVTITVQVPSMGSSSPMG
As for the experimental part: as §1, §2

Assay [3] deals with T3, cynomolgus monkey FcγRIIa2 extracellular domain, C-terminal His-tag (cynomolgus monkey).
T3 construct: also called cyno FcγRIIa2; cynoFcgRIIa2
T3 chain: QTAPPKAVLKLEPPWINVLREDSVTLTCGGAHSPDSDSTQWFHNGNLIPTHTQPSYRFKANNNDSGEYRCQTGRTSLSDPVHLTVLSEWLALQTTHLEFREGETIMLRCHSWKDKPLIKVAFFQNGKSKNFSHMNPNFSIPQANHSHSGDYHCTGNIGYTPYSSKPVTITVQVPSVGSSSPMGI
How it is done: as §1, §2

In assay [4] the target is T4, human FcγRIIaH extracellular domain, C-terminal His-tag (human, UniProt P12318 34-217).
T4 construct: also called human FcγRIIa (type H); FcgRIIaH
T4 sequence: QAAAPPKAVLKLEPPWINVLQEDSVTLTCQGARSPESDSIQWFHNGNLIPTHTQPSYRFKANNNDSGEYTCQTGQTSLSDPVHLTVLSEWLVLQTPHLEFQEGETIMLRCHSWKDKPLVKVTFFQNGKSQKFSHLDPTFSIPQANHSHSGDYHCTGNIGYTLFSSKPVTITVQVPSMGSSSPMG
How it is done:
as §1, §2

Assay [5] concerns the target T5, cynomolgus monkey FcγRIIa1 extracellular domain, C-terminal His-tag (cynomolgus monkey).
T5 construct: also called cyno FcγRIIa1; cynoFcgRIIa1
T5 chain: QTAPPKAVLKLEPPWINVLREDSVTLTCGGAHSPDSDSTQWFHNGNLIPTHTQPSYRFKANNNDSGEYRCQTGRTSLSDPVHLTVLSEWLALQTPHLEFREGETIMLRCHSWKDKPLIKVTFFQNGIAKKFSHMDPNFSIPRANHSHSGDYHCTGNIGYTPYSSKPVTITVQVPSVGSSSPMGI
How it is done:
as §1, §2

Assay [6] concerns the target T6, human FcγRIIb extracellular domain, C-terminal His-tag (human, UniProt P31994 43-217).
T6 construct: also called human FcgRIIb; FcgRIIb
T6 sequence: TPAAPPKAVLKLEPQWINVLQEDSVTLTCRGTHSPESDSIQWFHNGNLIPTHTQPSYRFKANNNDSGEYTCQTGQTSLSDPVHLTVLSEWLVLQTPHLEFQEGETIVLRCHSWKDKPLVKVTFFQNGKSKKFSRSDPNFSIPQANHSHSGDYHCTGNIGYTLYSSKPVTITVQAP
As for the experimental part: as §1, §2

The target of assay [7] is T7, human FcγRIIIaV extracellular domain, C-terminal His-tag (human, UniProt P08637 17-208).
T7 construct: also called human FcgRIIIaV; FcgRIIIaV
T7 sequence (P08637 17-208 F176V): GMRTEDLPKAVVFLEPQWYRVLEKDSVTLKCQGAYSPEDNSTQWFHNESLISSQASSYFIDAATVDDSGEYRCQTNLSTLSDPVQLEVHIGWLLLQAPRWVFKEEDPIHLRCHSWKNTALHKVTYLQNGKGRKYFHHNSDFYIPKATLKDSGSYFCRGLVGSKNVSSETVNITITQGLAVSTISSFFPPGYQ
As for the experimental part:
as §1, §2

For assay [8], the target named is T8, cynomolgus monkey FcγRIIIaS extracellular domain, C-terminal His-tag (cynomolgus monkey, UniProt Q8SPW2 21-206 at identity 1.00)).
T8 construct: also called cyno FcγRIIIaS; cynoFcγRIIIaS
T8 chain: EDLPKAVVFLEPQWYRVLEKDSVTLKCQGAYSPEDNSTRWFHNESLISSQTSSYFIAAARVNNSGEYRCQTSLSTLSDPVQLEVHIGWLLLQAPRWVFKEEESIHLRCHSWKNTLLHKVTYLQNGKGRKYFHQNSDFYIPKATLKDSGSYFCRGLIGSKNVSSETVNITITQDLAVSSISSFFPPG
As for the experimental part: as §1, §2

The target of assay [9] is T9, cynomolgus monkey FcγRIIb extracellular domain, C-terminal His-tag (cynomolgus monkey).
T9 construct: also called cyno FcγRIIb; cynoFcγRIIb
T9 chain: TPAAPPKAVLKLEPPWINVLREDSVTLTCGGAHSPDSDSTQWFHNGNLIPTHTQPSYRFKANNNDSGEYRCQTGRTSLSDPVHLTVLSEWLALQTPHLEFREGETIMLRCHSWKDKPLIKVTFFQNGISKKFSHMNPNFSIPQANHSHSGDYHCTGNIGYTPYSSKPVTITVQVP
How it is done:
as §1, §2

B1: M103205H795-MY330/M103202L889-SK1 (antibody, human IgG1, kappa)
heavy: QVTLKESGPVLVKPTETLTLTCTVSGIDLSHDDISWVRQAPGKGLEWVGIISYAGSTYYASWAKGRLTISKDTSKNQVVLTMTNMDPVDTATYYCARGVPAYSHGGDLWGQGTLVTVSSASTKGPSVFPLAPSSKSTSGGTAALGCLVKDYFPEPVTVSWNSGALTSGVHTFPAVLQSSGLYSLSSVVTVPSSSLGTQTYICNVNHKPSNTKVDKKVEPKSCDKTHTCPPCPAPELWNGPSVFLFPPKPKDTLMISRTPEVTCVVVDVSEEDPEVKFNWYVDGVEVHNAKTKPREEQYNSTYRVVSVLTVLHQDWLNGKEYKCKVSNKALPKPIEKTISKAKGQPREPQVYTLPPSREEMTKNQVSLTCLVKGFYPSDIAVEWESNGQPENNYKTTPMVLDSDGSFFLYSKLTVDKSRWQQGNVFSCSVMHEALHNHYTQKSLSLSP
light: DIVMTQSPATLSLSPGERATLSCTSSQSVYHANWLSWFQQKPGQPPKLLIYWASTLAYGVPSRFSGSGSGTDFTLTISSLQPEDAATYYCAGGYGGGRYAFGQGTKVEIKRTVAAPSVFIFPPSDEQLKSGTASVVCLLNNFYPREAKVQWKVDNALQSGNSQESVTEQDSKDSTYSLSSTLTLSKADYEKHKVYACEVTHQGLSSPVTKSFNRGEC
notes: Substitutions introduced into M103205H795-SG1; expressed with M103202L889-SK1 as light chain
In the case of B1, the Kd – broadly, the equilibrium constant for the complex coming apart – amounted to 4700 nM in assay [1]; 900 nM in [2]; 2200 nM in assay [3]; 960 nM in [4]; 2200 nM in assay [5]; 670 nM in assay [6]. Moreover, the Kd amounted to 12000 nM in [7], 6600 nM in assay [8] and 610 nM in assay [9].

B2: M103205H795-MY440/M103202L889-SK1 (antibody, human IgG1, kappa)
heavy: QVTLKESGPVLVKPTETLTLTCTVSGIDLSHDDISWVRQAPGKGLEWVGIISYAGSTYYASWAKGRLTISKDTSKNQVVLTMTNMDPVDTATYYCARGVPAYSHGGDLWGQGTLVTVSSASTKGPSVFPLAPSSKSTSGGTAALGCLVKDYFPEPVTVSWNSGALTSGVHTFPAVLQSSGLYSLSSVVTVPSSSLGTQTYICNVNHKPSNTKVDKKVEPKSCDKTHTCPPCPAPELWNGPSVFLFPPKPKDTLMISRTPEVTCVVVDVSDEDPEVKFNWYVDGVEVHNAKTKPREELYNSTYRVVSVLTVLHQDWLNGKEYKCKVSNKALPKPIEKTISKAKGQPREPQVYTLPPSREEMTKNQVSLTCLVKGFYPSDIAVEWESNGQPENNYKTTPPVLDSDGSFFLYSKLTVDKSRWQQGNVFSCSVMHEALHNHYTQKSLSLSP
light: DIVMTQSPATLSLSPGERATLSCTSSQSVYHANWLSWFQQKPGQPPKLLIYWASTLAYGVPSRFSGSGSGTDFTLTISSLQPEDAATYYCAGGYGGGRYAFGQGTKVEIKRTVAAPSVFIFPPSDEQLKSGTASVVCLLNNFYPREAKVQWKVDNALQSGNSQESVTEQDSKDSTYSLSSTLTLSKADYEKHKVYACEVTHQGLSSPVTKSFNRGEC
notes: as for B1
B2: the equilibrium dissociation constant (Kd) in assay [1] is 48000 nM; in assay [2] it was 11000 nM; in [3], 1800 nM; in assay [4] it was 910 nM; in assay [5], 1600 nM; in assay [6], 800 nM. Further, the figures for the Kd in assay [7], in assay [8] and in assay [9] were 27000 nM, 9300 nM and 460 nM, respectively.

B3: M103205H795-MY434/M103202L889-SK1 (antibody, human IgG1, kappa)
heavy: QVTLKESGPVLVKPTETLTLTCTVSGIDLSHDDISWVRQAPGKGLEWVGIISYAGSTYYASWAKGRLTISKDTSKNQVVLTMTNMDPVDTATYYCARGVPAYSHGGDLWGQGTLVTVSSASTKGPSVFPLAPSSKSTSGGTAALGCLVKDYFPEPVTVSWNSGALTSGVHTFPAVLQSSGLYSLSSVVTVPSSSLGTQTYICNVNHKPSNTKVDKKVEPKSCDKTHTCPPCPAPELWNGPSVFLFPPKPKDTLMISRTPEVTCVVVDVSDEDPEVKFNWYVDGVEVHNAKTKPREEQYNSTYRVVSVLTVLHQDWLNGKEYKCKVSNKALPKPIEKTISKAKGQPREPQVYTLPPSREEMTKNQVSLTCLVKGFYPSDIAVEWESNGQPENNYKTTPPVLDSDGSFFLYSKLTVDKSRWQQGNVFSCSVMHEALHNHYTQKSLSLSP
light: DIVMTQSPATLSLSPGERATLSCTSSQSVYHANWLSWFQQKPGQPPKLLIYWASTLAYGVPSRFSGSGSGTDFTLTISSLQPEDAATYYCAGGYGGGRYAFGQGTKVEIKRTVAAPSVFIFPPSDEQLKSGTASVVCLLNNFYPREAKVQWKVDNALQSGNSQESVTEQDSKDSTYSLSSTLTLSKADYEKHKVYACEVTHQGLSSPVTKSFNRGEC
notes: as for B1
As to B3, the Kd in [1] came out at 64000 nM; in assay [2], 1900 nM; in [3], 2400 nM; in assay [4] it was 16000 nM; in assay [5], 2900 nM; in assay [6] it was 1400 nM. Also, the Kd was 16000 nM in assay [7], 11000 nM in assay [8] and 740 nM in assay [9].

(Values after patent publication US20200317768A1 (published 2020).)
